According to US20120058906A1 (published 2012):

T1: rHuman Erythropoietin R/Fc Chimera, CF (R&D Systems Cat#963-ER) (human, UniProt P19235 25-250)
T1 construct: also called EPO R/Fc; Epo R; Fc part of the bought chimera not given
T1 sequence: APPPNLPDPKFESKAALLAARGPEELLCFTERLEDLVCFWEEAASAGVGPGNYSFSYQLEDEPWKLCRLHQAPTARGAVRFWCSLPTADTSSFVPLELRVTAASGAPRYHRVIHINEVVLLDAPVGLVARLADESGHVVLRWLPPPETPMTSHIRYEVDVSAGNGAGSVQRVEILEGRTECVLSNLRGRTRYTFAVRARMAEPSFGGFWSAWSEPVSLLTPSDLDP

T2: rHuman Erythropoietin R/Fc Chimera, CF (R&D Systems Cat#963-ER) (human, UniProt P19235 25-250)
T2 construct: Bought reagent; also called EPO R/Fc; Epo R; Fc part of the bought chimera not given
T2 sequence: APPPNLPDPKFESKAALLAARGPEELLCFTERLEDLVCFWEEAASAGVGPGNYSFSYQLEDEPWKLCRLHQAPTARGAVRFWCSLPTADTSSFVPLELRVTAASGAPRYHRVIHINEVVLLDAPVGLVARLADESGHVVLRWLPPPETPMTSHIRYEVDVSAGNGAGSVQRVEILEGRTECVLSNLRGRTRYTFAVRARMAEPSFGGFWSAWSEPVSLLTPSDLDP


What was measured:
[1] = target: T3, rHuman CD44/Fc Chimera, CF (R&D Systems Cat#3660-CD) (human, UniProt P16070 21-220); assay: MSD ECL multi-spot plate; Fab 130 nM; blank spot 1153
T3 construct: Fc part of the bought chimera not given

[2] = target: T4, Recombinant Human DLL4 (R&D Systems Cat#1506-D4/CF) (human, UniProt Q9NR61 27-524); assay: as above
T4 construct: also called delta-like protein 4

[3] = target: T5, rHuman ErbB2/Fc Chimera, CF (R&D Systems Cat#1129-ER) (human, UniProt P04626 23-652); assay: as above
T5 construct: also called HER2/neu; human epidermal growth factor 2 receptor; Fc part of the bought chimera not given

[4] = target: T6, rHuman EGF R/Fc Chimera, CF (R&D Systems Cat#344-ER) (human, UniProt P00533 25-645); assay: as above
T6 construct: also called epidermal growth factor receptor; Fc part of the bought chimera not given

[5] = target: T3, rHuman CD44/Fc Chimera, CF (R&D Systems …); assay: MSD ECL multi-spot plate; Fab 32.5 nM; blank spot 473
[6] = target: T7, rHuman IGF-1 sR, (IGF-1 sR), CF (R&D Systems Cat#391-GR) (human, UniProt P08069 31-932); assay: as above
T7 construct: also called insulin-like growth factor-1 soluble receptor; IGF-R1

[7] = target: T1, rHuman Erythropoietin R/Fc Chimera, CF …; assay: as above
[8] = target: T4, Recombinant Human DLL4 (R&D Systems …); assay: as above
[9] = target: T5, rHuman ErbB2/Fc Chimera, CF (R&D …); assay: as above
[10] = target: T8, rHuman Notch-1/Fc Chimera, CF (R&D Systems Cat#3647-TK) (human, UniProt P46531 19-526); assay: as above
T8 construct: Fc part of the bought chimera not given

[11] = target: T9, rHuman HGF R/c-MET/Fc Chimera, CF (R&D Systems Cat#358-MT/CF) (human, UniProt P08581 25-932); assay: as above
T9 construct: also called HGF R/Fc; hepatocyte growth factor receptor; Fc part of the bought chimera not given

[12] = target: T6, rHuman EGF R/Fc Chimera, CF (R&D …); assay: as above
[13] = target: T10, rHuman HGF R/c-MET/Fc Chimera, CF (R&D Systems Cat#358-MT/CF) (human, UniProt P08581 25-932); assay: ECL (MSD multi-spot), antigen spotted on plate; Fab 22 nM; blank spot 289
T10 construct: Bought reagent; also called HGF R/Fc; hepatocyte growth factor receptor; Fc part of the bought chimera not given

[14] = target: T11, Recombinant Human DLL4 (R&D Systems Cat#1506-D4/CF) (human, UniProt Q9NR61 27-524); assay: as above
T11 construct: Bought reagent; also called delta-like protein 4

[15] = target: T12, rHuman IGF-1 sR (IGF-1 sR), CF (R&D Systems Cat#391-GR) (human, UniProt P08069 31-932); assay: as above
T12 construct: Bought soluble receptor; also called insulin-like growth factor-1 soluble receptor; IGF-R1

[16] = target: T2, rHuman Erythropoietin R/Fc Chimera, CF …; assay: as above
[17] = target: T13, rHuman P-Cadherin/Fc Chimera, CF (R&D Systems Cat#861-PC) (human, UniProt P22223 108-654); assay: as above
T13 construct: Bought reagent; also called CDH3; Fc part of the bought chimera not given

[18] = target: T14, rHuman EGF R/Fc Chimera, CF (R&D Systems Cat#344-ER) (human, UniProt P00533 25-645); assay: as above
T14 construct: Bought reagent; also called epidermal growth factor receptor; Fc part of the bought chimera not given

[19] = target: T15, rHuman Notch-1/Fc Chimera, CF (R&D Systems Cat#3647-TK) (human, UniProt P46531 19-526); assay: as above
T15 construct: Bought reagent; Fc part of the bought chimera not given
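Further: blank spot per well as comparator with Hit at signal to blank ratio of 4 or more.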

| Binder | ECL signal [1] | ECL signal [2] | ECL signal [3] | ECL signal [4] | ECL signal [5] | ECL signal [6] | ECL signal [7] | ECL signal [8] | ECL signal [9] | ECL signal [10] | ECL signal [11] | ECL signal [12] | ECL signal [13] | ECL signal [14] | ECL signal [15] | ECL signal [16] | ECL signal [17] | ECL signal [18] | ECL signal [19] |
| --- | --- | --- | --- | --- | --- | --- | --- | --- | --- | --- | --- | --- | --- | --- | --- | --- | --- | --- | --- |
| Fab VH1-8_IGHD2-2*01_IGHJ6*01 & L12_IGKJ1*01 (Fab, V domains shown) VH: QVQLVQSGAEVKKPGASVKVSCKASGYTFTSYDINWVRQATGQGLEWMGWMNPNSGNTGYAQKFQGRVTMTRNTSISTAYMELSSLRSEDTAVYYCARGGYCSSTSCYADYYYYYGMDVWGQGTTVTVSS VL: not shown | 1750 ECL signal | 7740 ECL signal | 1530 ECL signal | 1750 ECL signal | 573 ECL signal | 561 ECL signal | 673 ECL signal | 2990 ECL signal | 556 ECL signal | 706 ECL signal | 525 ECL signal | 645 ECL signal |  |  |  |  |  |  |  |
| Fab VH1-46_IGHD3-10*01_IGHJ4*01 & B3_IGKJ1*01 (Fab, V domains shown, also called IGHV1-46*01) VH: QVQLVQSGAEVKKPGASVKVSCKASGYTFTSYYMHWVRQAPGQGLEWMGIINPSGGSTSYAQKFQGRVTMTRDTSTSTVYMELSSLRSEDTAVYYCAREYYYGSGSYYNDYFDYWGQGTLVTVSS VL: not shown |  |  |  |  |  |  |  |  |  |  |  |  | 203 | 342 | 347 | 2240 | 215 | 312 | 389 |
